Measured values: US12059458B2, “Peptides and combination of peptides and scaffolds for use in immunotherapy against renal cell carcinoma (RCC) and other cancers” (Immatics Biotechnologies GmbH, priority 2015, dated 2024)

Target: HLA-A*02:01 (Homo sapiens, UniProt P04439, D140Y/D185E/D98H/E176V/E277Q/G131W/G231S/I119V/I121R/I166T/I218V/L300P/L318F/N151K/N90K/P208A/P217A/Q86G/Q94H/R138H/R169H/T345S)
Experiment: MHC binding assay (UV-ligand exchange, beta2m ELISA, peptide exchange yield)
Conditions: binding to HLA-A*02:01 ranged by peptide exchange yield, β2m ELISA
Text: Candidate peptides for T cell based therapies according to the present invention were further tested for their MHC binding capacity (affinity). The individual peptide-MHC complexes were produced by UV-ligand exchange, where a UV-sensitive peptide is cleaved upon UV-irradiation, and exchanged with the peptide of interest as analyzed. Only peptide candidates that can effectively bind and stabilize the peptide-receptive MHC molecules prevent dissociation of the MHC complexes. To determine the yield of the exchange reaction, an ELISA was performed based on the detection of the light chain (β2m) of stabilized MHC complexes. The assay was performed as generally described in Rodenko et al. (Rodenko et al., 2006).
96 well MAXISorp plates (NUNC) were coated over night with 2 ug/ml streptavidin in PBS at room temperature, washed 4× and blocked for 1 h at 37° C. in 2% BSA containing blocking buffer. Refolded HLA-A*02:01/MLA-001 monomers served as standards, covering the range of 15-500 ng/ml. Peptide-MHC monomers of the UV-exchange reaction were diluted 100 fold in blocking buffer. Samples were incubated for 1 h at 37° C., washed four times, incubated with 2 ug/ml HRP conjugated anti-β2m for 1h at 37° C., washed again and detected with TMB solution that is stopped with […]. Absorption was measured at 450 nm. Candidate peptides that show a high exchange yield (preferably higher than 50%, most preferred higher than 75%) are generally preferred for a generation and production of antibodies or fragments thereof, and/or T cell receptors or fragments thereof, as they show sufficient avidity to the MHC molecules and prevent dissociation of the MHC complexes.

Substance	Peptide exchange (MHC class I binding score)
73 (GLDGIPFTV; listed as Homo sapiens) [compound 73]	+++ (≥50 = +++)
74 (GLFHKQVTV; listed as Homo sapiens) [compound 74]	+++ (≥50 = +++)
75 (FLIKSINLV; listed as Homo sapiens) [compound 75]	+++ (≥50 = +++)
76 (VLADDHLIEV; listed as Homo sapiens) [compound 76]	++ (≥20% = ++)
77 (SLIKHKIML; listed as Homo sapiens) [compound 77]	++ (≥20% = ++)
78 (ALLDTVVQA; listed as Homo sapiens) [compound 78]	++ (≥20% = ++)
79 (ALADIVWRA; listed as Homo sapiens) [compound 79]	+++ (≥50 = +++)
80 (KLASMLETL; listed as Homo sapiens) [compound 80]	+++ (≥50 = +++)
81 (SLLPALPKL; listed as Homo sapiens) [compound 81]	++ (≥20% = ++)
82 (SLLQATDFMSL; listed as Homo sapiens) [compound 82]	+++ (≥50 = +++)
83 (IQWSIVPEV; listed as Homo sapiens) [compound 83]	+++ (≥50 = +++)
84 (YLMDEGAHL; listed as Homo sapiens) [compound 84]	++ (≥20% = ++)
85 (FVMSEIRTV; listed as Homo sapiens) [compound 85]	+++ (≥50 = +++)
86 (GLLQGKLALL; listed as Homo sapiens) [compound 86]	++ (≥20% = ++)
88 (TLAELHISL; listed as Homo sapiens) [compound 88]	++ (≥20% = ++)
89 (SLLLAVTEV; listed as Homo sapiens) [compound 89]	++ (≥20% = ++)
90 (FTLEKNFVI; listed as Homo sapiens) [compound 90]	++ (≥20% = ++)
91 (MLLSSLVSL; listed as Homo sapiens) [compound 91]	++ (≥20% = ++)
92 (FLFRDILEL; listed as Homo sapiens) [compound 92]	+++ (≥50 = +++)

Substance	Peptide exchange (MHC class I binding score)
93 (GVMAGDIYSV; listed as Homo sapiens) [compound 93]	++++ (≥75% = ++++)
96 (TLAETLVNL; listed as Homo sapiens) [compound 96]	+++ (≥50 = +++)
97 (TLISELVQA; listed as Homo sapiens) [compound 97]	++ (≥20% = ++)
99 (GLAPHLEQI; listed as Homo sapiens) [compound 99]	++ (≥20% = ++)
100 (KLNVAPLAV; listed as Homo sapiens) [compound 100]	++ (≥20% = ++)
101 (HIYDKAFITV; listed as Homo sapiens) [compound 101]	++ (≥20% = ++)
102 (LLFDVHTTL; listed as Homo sapiens) [compound 102]	+++ (≥50 = +++)
103 (KLQDGLLHI; listed as Homo sapiens) [compound 103]	++ (≥20% = ++)
104 (ALFEGVVRQI; listed as Homo sapiens) [compound 104]	+++ (≥50 = +++)
105 (ALADLDELLIRA; listed as Homo sapiens) [compound 105]	+++ (≥50 = +++)
106 (VLMDLKALL; listed as Homo sapiens) [compound 106]	+++ (≥50 = +++)
107 (VLMDLKALLL; listed as Homo sapiens) [compound 107]	+++ (≥50 = +++)
108 (VLISVLQAI; listed as Homo sapiens) [compound 108]	++ (≥20% = ++)
109 (YLWSRVEKL; listed as Homo sapiens) [compound 109]	++++ (≥75% = ++++)
110 (LLDLHSYLL; listed as Homo sapiens) [compound 110]	++ (≥20% = ++)
111 (TLLETEMLL; listed as Homo sapiens) [compound 111]	++ (≥20% = ++)
112 (LLFDHLEPIEL; listed as Homo sapiens) [compound 112]	+++ (≥50 = +++)
113 (SLFDWNVKL; listed as Homo sapiens) [compound 113]	+++ (≥50 = +++)
114 (ALAVNISAA; listed as Homo sapiens) [compound 114]	+++ (≥50 = +++)
